Experimental findings from the DeepSol protein solubility set are described below.

This series in a line: soluble on expression in E. coli; label from the status in PepcDB or PDB records.
“MSLLANLPPLVTVFGGSGFVGRHVVRMLAKRGYRIRVAVRRPDLAGFLQPLGNVGQISFAQANLRYRDSIIKAVEDADHVVNCVGILAESGRNTFDAVQEFGAKAIAEAARDTGATLTHISAIGADANSQTGYGRTKGRAEAAIHSVLPGAVILRPSIIFGPEDDFFNKFAKMARNLPFLPLIGGGKTKFQPVYVEDVAEAVARSVDGKLKPGAIYELGGPDVMTFRDCLEAVLAATYRERSFVNLPFGVASMIGKLASLVPLITPPLTPDQVTMLKKDNVVSAEAEKKGLTLEGIGITPVRVASVLPSYMVQYRQHGQFSNAGKAAEGHHHHHH”: the “soluble on expression in E. coli” value is listed as “soluble”.
In the case of “MEKITFEQVKEAVFHEKMSNGLQVYLLPKQGFSKTYAVFTTNYGAIDNNFVPIGETEFTKVPDGIAHFLEHKMFEKEDGDVFFKFGEKGAFTNAFTSFTKTAYLFSSTSRVEENLETLIDFVQEPYFTEETVEKEKGIIGQEIRMYDDDPDFRAYFGVIENMYHNHPVKIDIAGTVESIAEINKDLLYLCYNTFYHPSNMVLFVVGNLEPEEMMNQIRANQAKKDFTEAAPIKRHFPEEPKTVAVKERKIHFPVQIAKNMVGIKEDIGSLEGQVALKQEIIGDVALEMLFGTTSDTYLELYNQGIIDDSFGYDYTLQDSFSFVLVGGDAKDPDMQTTKIIEAIQAAAKNGLNEADLALVKRKRIGQFLRSLNSPEFIANQFSQYVMKSASLFDILPLMETVTLEEVNNFVKNLDSEERTTSFQLLPEK” it was “not soluble”; in that of “MSIVTVQLGQCGNQIGFEVFDALFRDSHCSQGLCSKRDNEAYQASCRERFFREEENGVPVARAVLVDMEPKVINQTLSKAAQSGRWNYGQHTSFCQKQGSGNNWAYGYSVHGPKHEESIMNLIQTEVEKCDSLSGFFIIMSMAGGTGSGLGAFVTQKLQDQYSSSLKMNQIIWPYGTGEVIVQNYNSILTLSHLYRSSDALLIHENDAVHKICAKRMNIKQISFRDLNQVLAHQLGSVFQPTYSEDSSFHYRRNPLGDLMEHLVPHPEFKMLGVRNIPQMSAASLAYSAFTWAGLLKHLRQMLISSAKMEEGINWQVRPPLTGLPPIGKASAHKEHHFNTSLANLVVLRGREVHSADVEGFKDPALYTSWLEPVDAFSVWKTQRAFDKYEKSAALVSNSQLLVKPLDMIVGKAWNMFSSKAFIHQYTKFGMEEEDFLDSFALLEQVVASYGSLGP”, “not soluble”.
The entry for “MDQSSHHHHHHMDQKQIEEIVRSVMASMGQAAPAPSEAKCATTNCAAPVTSESCALDLGSAEAKAWIGVENPHRADVLTELRRSTVARVCTGRAGPRPRTQALLRFLADHSRSKDTVLKEVPEEWVKAQGLLEVRSEISDKNLYLTRPDMGRRLCAEAVEALKAQCVANPDVQVVISDGLSTDAITVNYEEILPPLMAGLKQAGLKVGTPFFVRYGRVKIEDQIGEILGAKVVILLVGERPGLGQSESLSCYAVYSPRMATTVEADRTCISNIHQGGTPPVEAAAVIVDLAKRMLEQKASGINMTR” is “soluble”; for “MKSVVLGILSSISDEVNLEMIKKYDVKLARRISGGGSVFHDMGNINYTFITSGQGGIDYLYGYLLRGTISAIENLVNDRVEVYNETDIAFKGYKISGNAGYINEDKYLLHGTLLVSSNLDI” it is “soluble”; for “MSLSQPIKLGIITDRVGAAKPYAEPVLQGAQVAAKELNASGGVLGRPIELLVEDDQGRPDLSATAARKMVDSGVAFILSISWTSATQQAQSVTVETGTPHLAPSNSGDTLTTQIANPNFWQTGPLASSQVSTLLAYARSKSFKRVAIIGDNTGLGQLMTQSFKAGIEAAKIQVVSEEVVPRGANSADAQIQRVRASNPDAIFLTGILAPENTLILRAYRLLGLKAPLLGNFSFSNIQYASVAKGLLDGLVFIDAFDPTKPQVQRFIATYTKAAGTAPDNINAYGYDGVMLVADAIRRAGGTDKLKVRDAMQATKGFVGVLGAQGASYGFANGKRTGFDGDGLVVRIYEGDRQGKVQFTGTREGHHHHHH” it is “soluble”.
The entry for “MGSDKIHHHHHHMGLRILQVMAGAEQGGAELFFERLCIALHRAGLHQHVVMREASVRLARMREAGLRPVLLPFGGRFDFKTGRALRQEIARFQPAVVLSWMNRATRFVRPGNHVFCARLGGYYDLKYYRGCDWLVCNTEDIRDYVIKQGFPAERAVHLPNFVPQQHMAPTARKLLYTPENAPLVLALGRLHENKAFDVLLRALALVPDVYLWLAGEGPLRASLETLAQDLGVKPRVRFLGWRDDTPALYAAADLVVFPSRHEPLGNVVLEAWAQRTPMVSTRTDGPARLITSGHNGLLVPIDDHRAMAGAIRQAFGEPGLGEAMARAGWDSYLAAYTEEKVVASYRSFFETIVAERSGAVDRG” is “not soluble”; for “MGSDKIHHHHHHMKYTFNEEKAFDIVAIGRACIDLNAVEYNRPMEETMTFSKYVGGSPANIAIGSAKLGLKAGFIGKIPDDQHGRFIESYMRKTGVDTTQMIVDQDGHKAGLAFTEILSPEECSILMYRDDVADLYLEPSEVSEDYIANAKMLLVSGTALAKSPSREAVLKAVQYAKKHQVKVVFELDYRPYTWQSSDETAVYYSLVAEQSDIVIGTRDEFDVMENRTGGSNEESVNHLFGHSADLVVIKHGVEGSYAYSKSGEVFRAQAYKTKVLKTFGAGDSYASAFIYGLVSGKDIETALKYGSASASIVVSKHSSSEAMPTAEEIEQLIEAQS” it is “not soluble”; for “MGSDKIHHHHHHGDDDDPVVPELNKLTKVSCYKDGASSPLFTADINYTSDGKISNINLGVDKLLFIYSDGKFSVTGIHSGEVIEEYTLSGNVITSKKISQENPYASNEIYVSDEYSYRYSGSNWVLTSWNARWPKEFGTGYEERSYPEYEKYTWENGNVVLYAQSLDSREMRYEYSVAEAPKNFPLRVIGSFSPVGFESVTPLNLLYGIQNRNLPIRAYTYTIPNQSEVKAEYKYTYTTVGDYITGMTIDENDGGTASSYKYTFEYNFAVK” it is “not soluble”.
As to “MGSDKIHHHHHHMKKKTAVVFGTFAPLHQGHIDLIQRAKRQCDQVWVVVSGYEGDRGEQVGLTLQKRFRYIREAFRGDELTLVCKLDETNLPRYPMGWQEWLDQMLAEISYDETQQELIFFVGEADYQQELSNRGFETVLQERKFGISATMIRENPSKYWKNIAQPFRRQFTKKVLIMGSASNGKTTLAKDLARYYDAPVSLEYAREYQIKNNVRDDELTPKDYYYLLLGQYDQTSKLIDSNANRGLVIADTNSLVTKGYYDYYMETEDQGDLSGETFDNLFVSILAKEKWDLILFVQPVGSYVNDGFRDMTMAEDHIRHSFSQHLDHMRERYLTTIPLVYLAEDYLGNYEAAKVAIDAIYQAD”, the “soluble on expression in E. coli” value is “not soluble”.
The entry for “MPTSSTPPIVYETDLEPIYYQDCYCHKELVFCKNWKFGGEIFKYNSSGTNSSIRRVQFDCCVYKDQEIDEEMSEKVKTFKGTLDPRQVVQNNCFQHLSPLYSKFCEHYGHMIGFFWNSLKDTVMAYDIADGLFQETKDCGCCLFHKDVYLTNHIFFEKSHRDEYGQTIICMDINWHTKEHGKMSIFFNSQGFFGEYRWNRVAQCFKLMKQLDVKTTEYEVADRTDDEKNWSSFSYDAIHFLEQEYRKTKYISSTDCQKISEKIHLDEELIEKWFRARRATSKREANSNEDIFTSQYQQTKLTMKDGTEGYFLRKNHEYFKKIVVTVGFSDGSVKPCVWIEKISEYQIIDQETWRLKFENSRVMAIDAEAREQVHRQRKLNSNEKRKEEEAENEQEKLFKEMAELEIQNYRILPNSSDKRLEEHELKTQSSTLPKPCAHAQAQAHAQAQAHAQAHETNDNWPKLMTELFRALLQGQSLTQQHMQRLVHLRTQPDFNRRSYAGHELTAMEMEALKQLLNLLNGKEMPTGKKEEVEGSGLTISEAHGTVGSPMLIEKKEELEGSLEHQPTMANEEIDQNLKEETTTKPEYRKKLRMSKRKQNELLQKLWLKEKNTENTHAEKTNQEKKLTENAVQEQLEQMMKMIQEERRAADSKNLKLEQMVLEMKDKLDAQETRIKELEEVIKSDKNAKKGEQLTDPTEPQYTEAPNAEVGHKSNISSSIGNDVDLLEDDSGED” is “not soluble”.
“SLVSSSKITRAREMVTKTEEKQLNQLEIQVDNGGGGTWEYLCLVRNLKVRRSEKVLKHGSSILNDQKKRSALGPDEWTLNEQVAIAAMDCQCLGVAQSCIKALQTKFPGSKRVGRLEALLLEAKGLWGEAEEAYASLLEDNPLDQAIHKRRVAISKALGKPSIAIELLNKYLELFMADHDAWRELAELYLSLQMYKQAAFCYEELILSQPTVPLYHLAYAEVLYTIGGVENIISARKYYAATVDLTGGKNTRALLGICLCASAIAQLSKGRNKEDKDATAAPELHSLAAAAVEKEYKQKAPDKLQLISSALRILKT”: the “soluble on expression in E. coli” value was “soluble”.
